Results reported in US20230212319A1, “NOVEL ANTIGEN BINDING DOMAINS AND SYNTHETIC ANTIGEN RECEPTORS INCORPORATING THE SAME” (University of Southern California, priority 2020, published 2023).

How the values were obtained:
Format in all cases: cell-based
[1] = tested on: RAJI-CD19-KO cells; test: JNG assay, co-culture with RAJI-CD19-KO cells; details: co-culture with Raji-CD19-KO
In short: (§1)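 Read-out is NFAT-driven GFP measured by flow cytometry after ~4–18 h co-culture of SAR-expressing JNG cells with target cells (E:T about 1:2). SARs were introduced by lentiviral spinfection and selected with puromycin or blasticidin when possible; scores (+/- to 5+ ≈ 5–50% GFP+) are relative to parental JNG cells.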

[2] = tested on: RS;411; test: JNG assay, co-culture with RS;411 cells; details: co-culture with RS411
In short: as §1

[3] = tested on: RAJI cells; test: JNG assay, co-culture with RAJI cells; details: JNG cells expressing construct, co-culture with Raji
In short: as §1

[4] = tested on: L363 cells; test: JNG assay, co-culture with L363 cells; details: co-culture with L363
In short: as §1

[5] = tested on: Nalm6 cells; test: JNG assay, co-culture with Nalm6 cells; details: co-culture with Nalm6
In short: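 GFP expression induced through the NFAT pathway was monitored by FACS once SAR-bearing Jurkat reporters had been cultured with target cells at an approximate 1:2 ratio for 4 to 18 hours; parental reporter cells served as the baseline.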

B1: 22130 (protein)
chain: MALPVTALLLPLALLLHAARPACEVQLLESGGGLIQPGGSLRLSCAASGFTFSSHAMTWVRQAPGKGLEWVSAISGSGDYTHYADSVKGRFTISRDNSKNTVYLQMNSLRAEDSAVYYCAKDEDGGSLLGHRGQGTLVTVSSGTGGGGSGGGGSGGGGSEFDIQMTQSPSSLSASVGDRVTITCKASDHINNWLAWYQQKPGQAPKLLIYGATTLETGVPSRFSGSGSGTDYTLTISSLQPEDFATYYCQQSWNTPWTFGQGTKLEIKRLEDLKNVFPPEVAVFEPSKAEIAHTQKATLVCLATGFYPDHVELSWWVNGKEVHSGVCTDPQPLKEQPALNDSRYCLSSRLRVSATFWQNPRNHFRCQVQFYGLSENDEWTQDRAKPVTQIVSAEAWGRADCGITSASYHQGVLSATILYEILLGKATLYAVLVSALVLMAMVKRKDSRGRAKRSGSGATNFSLLKQAGDVEENPGPTSATMDWIWRILFLVGAATGAHSGPQVQLQESGGGLAQAGGSLRLSCAASGRTFSMGWFRQAPGKEREFVAAITYSGGSPYYASSVRGRFTISRDNAKNTVYLQMNSLKPEDTAVYYCAANPTYGSDWNAENWGQGTQVTVSSGSGGGGSGGGGSGGGGSFEQVQLQQPGAELVKPGASVKMSCKASGYAFSSYWINWMKQKPGQGLEWIGQIYPGDGDTNYNGKFKGRATLTADTSSSTAYMQLSSLTSEDSAVYFCARSITTVVGCAMDYWGQGTSVTVSSTRIQNPDPAVYQLRDSKSSDKSVCLFTDFDSQTNVSQSKDSDVYITDKCVLDMRSMDFKSNSAVAWSNKSDFACANAFNNSIIPEDTFFPSSDVPCDVKLVEKSFETDTNLNFQNLSVIGFRILLLKVAGFNLLMTLRLWSSRAKRSGSGVKQTLNFDLLKLAGDVESNPGPSRGHMTEYKPTVRLATRDDVPRAVRTLAAAFADYPATRHTVDPDRHIERVTELQELFLTRVGLDIGKVWVADDGAAVAVWTTPESVEAGAVFAEIGPRMAELSGSRLAAQQQMEGLLAPHRPKEPAWFLATVGVSPDHQGKGLGSAVVLPGVEAAERAGVPAFLETSAPRNLPFYERLGFTVTADVEVPEGPRTWCMTRKPGA
[1]
  NFAT-GFP ASSAY: Raji-CD19-KO: 5+ (refer to approximately 5%, 10%, 20%, 30%, 40% and 50% GFP positive cells)
[2]
  NFAT-GFP ASSAY: RS411: 4+ (refer to approximately 5%, 10%, 20%, 30%, 40% and 50% GFP positive cells)
[3]
  NFAT-GFP ASSAY: Raji: 4+ (refer to approximately 5%, 10%, 20%, 30%, 40% and 50% GFP positive cells)
[4]
  NFAT-GFP ASSAY: L363: 5+ (refer to approximately 5%, 10%, 20%, 30%, 40% and 50% GFP positive cells)

B2: 22229 (protein)
chain: MALPVTALLLPLALLLHAARPACEVQLLESGGGLIQPGGSLRLSCAASGFTFSSHAMTWVRQAPGKGLEWVSAISGSGDYTHYADSVKGRFTISRDNSKNTVYLQMNSLRAEDSAVYYCAKDEDGGSLLGHRGQGTLVTVSSGTGAIGFLRTAEFDIQMTQSPSSLSASVGDRVTITCKASDHINNWLAWYQQKPGQAPKLLIYGATTLETGVPSRFSGSGSGTDYTLTISSLQPEDFATYYCQQSWNTPWTFGQGTKLEIKRLEDLKNVFPPEVAVFEPSKAEIAHTQKATLVCLATGFYPDHVELSWWVNGKEVHSGVCTDPQPLKEQPALNDSRYCLSSRLRVSATFWQNPRNHFRCQVQFYGLSENDEWTQDRAKPVTQIVSAEAWGRADCGITSASYHQGVLSATILYEILLGKATLYAVLVSALVLMAMVKRKDSRGRAKRSGSGATNFSLLKQAGDVEENPGPTSATMDWIWRILFLVGAATGAHSGPEVQLVESGGGLVQAGGSLRLSCAASGRTFSMGWFRQAPGKEREFVAAITYSGGSPYYADSVKGRFTISRDNAKNTVYLQMNSLKPEDTAVYYCAANPTYGSDWNAENWGQGTQVTVSSGSGGGGSGGGGSGGGGSFEQVQLQQPGAELVKPGASVKMSCKASGYAFSSYWINWMKQKPGQGLEWIGQIYPGDGDTNYNGKFKGRATLTADTSSSTAYMQLSSLTSEDSAVYFCARSITTVVGCAMDYWGQGTSVTVSSTRIQNPDPAVYQLRDSKSSDKSVCLFTDFDSQTNVSQSKDSDVYITDKCVLDMRSMDFKSNSAVAWSNKSDFACANAFNNSIIPEDTFFPSPESSCDVKLVEKSFETDTNLNFQNLSVIGFRILLLKVAGFNLLMTLRLWSSRAKRSGSGVKQTLNFDLLKLAGDVESNPGPSRGHMTEYKPTVRLATRDDVPRAVRTLAAAFADYPATRHTVDPDRHIERVTELQELFLTRVGLDIGKVWVADDGAAVAVWTTPESVEAGAVFAEIGPRMAELSGSRLAAQQQMEGLLAPHRPKEPAWFLATVGVSPDHQGKGLGSAVVLPGVEAAERAGVPAFLETSAPRNLPFYERLGFTVTADVEVPEGPRTWCMTRKPGA
[1]
  NFAT-GFP ASSAY: Raji-CD19-KO: 5+ (refer to approximately 5%, 10%, 20%, 30%, 40% and 50% GFP positive cells)
[2]
  NFAT-GFP ASSAY: RS411: 2+ (refer to approximately 5%, 10%, 20%, 30%, 40% and 50% GFP positive cells)
[3]
  NFAT-GFP ASSAY: Raji: 3+ (refer to approximately 5%, 10%, 20%, 30%, 40% and 50% GFP positive cells)

B3: 22142 (protein)
chain: MALPVTALLLPLALLLHAARPQVQLVESGGGLVQPGGSLRLSCAASGFTFTNHAMSWVRQAPGKGLELVSSISGNGRTTYYADSVKGRFTISRDISKNTLDLQMNSLRAEDTAVYYCAKDGGETLVDSRGQGTLVTVSSLEGGGGSGGGGSIEGGGGSGGGGSKVQLLESGGGLVQPGGSLRLSCAASGFIFSSYAMSWVRQAPGKGQEWVSGVSGTGVNTYYADSVKGRFTISRDNSKNTLYLQMNSLRAEDTAVYYCASGKGWDSGSWYEDYRGQGTLVTVSSGTGGGGSGGGGSGGGGSEFDIQMTQSPSSLSASVGDRVTITCKASDHINNWLAWYQQKPGQAPKLLIYGATTLETGVPSRFSGSGSGTDYTLTISSLQPEDFATYYCQQSWNTPWTFGQGTKLEIKRLEIQNPDPAVYQLRDSKSSDKSVCLFTDFDSQTNVSQSKDSDVYITDKCVLDMRSMDFKSNSAVAWSNKSDFACANAFNNSIIPEDTFFPSSDVPCDVKLVEKSFETDTNLNFQNLSVIGFRILLLKVAGFNLLMTLRLWSSRAKRSGSGVKQTLNFDLLKLAGDVESNPGPTSATMDWIWRILFLVGAATGAHSGPQVQLQESGGGLAQAGGSLRLSCAASGRTFSMGWFRQAPGKEREFVAAITYSGGSPYYASSVRGRFTISRDNAKNTVYLQMNSLKPEDTAVYYCAANPTYGSDWNAENWGQGTQVTVSSGSGGGGSGGGGSGGGGSFEQVQLQQPGAELVKPGASVKMSCKASGYAFSSYWINWMKQKPGQGLEWIGQIYPGDGDTNYNGKFKGRATLTADTSSSTAYMQLSSLTSEDSAVYFCARSITTVVGCAMDYWGQGTSVTVSSTREDLKNVFPPEVAVFEPSKAEIAHTQKATLVCLATGFYPDHVELSWWVNGKEVHSGVCTDPQPLKEQPALNDSRYCLSSRLRVSATFWQNPRNHFRCQVQFYGLSENDEWTQDRAKPVTQIVSAEAWGRADCGITSASYHQGVLSATILYEILLGKATLYAVLVSALVLMAMVKRKDSRGRAKRSGSGATNFSLLKQAGDVEENPGPSRGHMTEYKPTVRLATRDDVPRAVRTLAAAFADYPATRHTVDPDRHIERVTELQELFLTRVGLDIGKVWVADDGAAVAVWTTPESVEAGAVFAEIGPRMAELSGSRLAAQQQMEGLLAPHRPKEPAWFLATVGVSPDHQGKGLGSAVVLPGVEAAERAGVPAFLETSAPRNLPFYERLGFTVTADVEVPEGPRTWCMTRKPGA
[1]
  NFAT-GFP ASSAY: Raji-CD19-KO: + (refer to approximately 5%, 10%, 20%, 30%, 40% and 50% GFP positive cells)
[5]
  NFAT-GFP ASSAY: Nalm6: + (refer to approximately 5%, 10%, 20%, 30%, 40% and 50% GFP positive cells)
[2]
  NFAT-GFP ASSAY: RS411: +/- (refer to approximately 5%, 10%, 20%, 30%, 40% and 50% GFP positive cells)
[3]
  NFAT-GFP ASSAY: Raji: + (refer to approximately 5%, 10%, 20%, 30%, 40% and 50% GFP positive cells)

B4: 22116 (protein)
chain: MALPVTALLLPLALLLHAARPQVQLVESGGGLVQPGGSLRLSCAASGFTFTNHAMSWVRQAPGKGLELVSSISGNGRTTYYADSVKGRFTISRDISKNTLDLQMNSLRAEDTAVYYCAKDGGETLVDSRGQGTLVTVSSLEIQNPDPAVYQLRDSKSSDKSVCLFTDFDSQTNVSQSKDSDVYITDKCVLDMRSMDFKSNSAVAWSNKSDFACANAFNNSIIPEDTFFPSSDVPCDVKLVEKSFETDTNLNFQNLSVIGFRILLLKVAGFNLLMTLRLWSSRAKRSGSGVKQTLNFDLLKLAGDVESNPGPTSTMALPVTALLLPLALLLHAARPQVQLVESGGGLVQPGGSLRLSCAASGFTFTNHAMSWVRQAPGKGLELVSSISGNGRTTYYADSVKGRFTISRDISKNTLDLQMNSLRAEDTAVYYCAKDGGETLVDSRGQGTLVTVSSLESGGGGSFEQVQLQQPGAELVKPGASVKMSCKASGYAFSSYWINWMKQKPGQGLEWIGQIYPGDGDTNYNGKFKGRATLTADTSSSTAYMQLSSLTSEDSAVYFCARSITTVVGCAMDYWGQGTSVTVSSTREDLKNVFPPEVAVFEPSKAEIAHTQKATLVCLATGFYPDHVELSWWVNGKEVHSGVCTDPQPLKEQPALNDSRYCLSSRLRVSATFWQNPRNHFRCQVQFYGLSENDEWTQDRAKPVTQIVSAEAWGRADCGITSASYHQGVLSATILYEILLGKATLYAVLVSALVLMAMVKRKDSRGRAKRSGSGATNFSLLKQAGDVEENPGPSRGHMTEYKPTVRLATRDDVPRAVRTLAAAFADYPATRHTVDPDRHIERVTELQELFLTRVGLDIGKVWVADDGAAVAVWTTPESVEAGAVFAEIGPRMAELSGSRLAAQQQMEGLLAPHRPKEPAWFLATVGVSPDHQGKGLGSAVVLPGVEAAERAGVPAFLETSAPRNLPFYERLGFTVTADVEVPEGPRTWCMTRKPGA
[1]
  NFAT-GFP ASSAY: Raji-CD19-KO: 2+ (refer to approximately 5%, 10%, 20%, 30%, 40% and 50% GFP positive cells)
[5]
  NFAT-GFP ASSAY: Nalm6: 3+ (refer to approximately 5%, 10%, 20%, 30%, 40% and 50% GFP positive cells)
[2]
  NFAT-GFP ASSAY: RS411: 2+ (refer to approximately 5%, 10%, 20%, 30%, 40% and 50% GFP positive cells)
[3]
  NFAT-GFP ASSAY: Raji: 3+ (refer to approximately 5%, 10%, 20%, 30%, 40% and 50% GFP positive cells)
